Laboratory results: the nanobody polyreactivity screen of Harvey et al. (2022)

assay: yeast display, Sf9 membrane polyspecificity reagent, FACS + sequencing; frameworks hold sequencing errors
In short: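 Using colony PCR, genes from sorted yeast display clones were amplified, then sequenced on MiSeq at 2 × 250 and filtered by CDR length. The clones had been stained with 10% biotinylated, detergent-solubilized Sf9 membrane reagent for 1 hour at 4 °C and sorted by FACS into low and high (top ~1%) gates on anti-HA and streptavidin fluorescence. Polyreactivity labels come from the gate of origin.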

Sequence | polyreactivity (PSR sort gate)
QVQLVESGGGLVQAGGSLRLSCAASGRIFSSNAMGWYRQAPGKEREFVAAISWRTGSTYYADSVKGRFTISRDNAKNTVYLQMNSLKPEDTAVYYCNKRTGSYGYPYYYWGQGTQVTVSS | high polyreactivity
QVQLVDSGGGLVQAGGSLRLSCAASGSIFNRYVMGWYRQAPGKERELVAAISRRGGNTYYADSVKGRFTISRDNAKNTVYLQMNSLKPEDTAVYYCAAAYRSYKQFYSYGYEYWGQGTQVTVSS | high polyreactivity
QVQHVESGGGLVQAGGGLRLSCAASGRIFRQNTMGWYRHAAGKEWELVASISLSAGSTFYADSVKGRFTISRDNAKNTVYLQMNSLKPEDTAVYYCAAEKPVHYVRGVHYDYWGQGTQVTVSS | low polyreactivity
QVQLVETGGGLVQEGGSLRLSCAASGRTFYSYAMGWYRQAPGKERELVARISSGGSTNYADSVKGRFTISRDNAKNTVYFQMNSLKPEDTAVYYCAAVRHRAMDYWGQGTQVTVSS | low polyreactivity
QVQLVESGGGLVQAGVSLRISSAASGLIFGSNAMGWYRQAPGIERELVAAISWRGGSTYYADSVKGRFTISRDNAKKTVSCQMNSLKPEDTAVYYCAKYPYYYYWFNYCGQGTQVTVSS | high polyreactivity
QVQLVESGGGLVQAGGSLRLSCAASGSTFTFNAMGWYRQATGKERELVAAITRSGTSTYYADSVKGRFTISRDNAKNTVYLQMNSLKPEDNAVYYCAAGRLWKTYEYYYWGQGTQVTVSS | high polyreactivity
QVQLVESGGGLVQAGGSLRLSCAASGFTFWPYTMGWYRQAPGKERELVAVISSSGGSTYYADSVKGRFTISRDNAKNTVYLQMNSLKPEDTAVYYCNARRRYGHVDYWGQGTQVTVSS | high polyreactivity
QVQLVESGGGLVQAGGSLRLSCAASGFIFVGNAMGWYRQAPGKERELVAAISSGTSTNYADSVKGRFTISRDNAKNTVYLQMNSLKPEDTAVYYCNAEVPATNEYTKRMDYWGQGTQVTVSS | low polyreactivity
QVQLVESGGGLVQAGGSLRLSCAASGSIFYRYAMGWSRQAPGKERELVAYISSGVSTNYADSVKGRFTISRDNAKKTVYLQMNSLKPEDTAVYYCAVRHSYTRAYWGRDFWGQGTQVTVSS | low polyreactivity
QVQLVESGGGLVQAGGSLRLSCAASGYTFWDYTMGWYRQAPGKERELVAAISSSGSSTYYADSVKGRFTISRDNAKNTVYLQMNSLKPEDTAVYYCAAYSRRQWKYDYWGQGTQVTVSS | high polyreactivity
QVQLVESGGGLVQAGVSLRLSCAASGGILYWYAMGWSRQAPGKERELVAAIDWTGGSTYYADSVKGRFTISRDNAKNTVYLQMNSLKPEDTAVYYCAADSYWGSGVVPGYDYWGQGTQVTVSS | low polyreactivity
QVQLVESGGGLVQAGGSLRLSCAASGLIFPVYAMGWYRQAPGKDREFVASIWRGGTTYYADSVKGRFTISRDNAKNTVYLQMNSLKPEDTAVYYCAAVVYSRGYYWGQGTQVTVSS | high polyreactivity
QVQLLESGGGIVQAGGSHRLRCAASGSIFGTNAMCWYRQATGKERELVAAISLSTGSTYYADSVKGRFTISRDNAKNTVYLQMNSLKPEDTAVYYCAAYYVTPIYYYWGQGTQVTVSS | low polyreactivity
QDQLVESGGGLVQAGGSLRLSCAPSGRTFGGYSMGWYRQAPGKERELVASNTSGGSTYYADSVKGRFTISRDNAKNTVYLQMNSLKPEDTAVYYCAAVTYFETSSRAIPSNDYWGQGTQVTVSS | low polyreactivity
QAQLVESGGGLVQAGGSLRLICAASGSTFGVNAMGWYTQAPGKERELVAIITSTTYADSVKGRFTISRDNAKNTVYLQMNSLKPEDTAVYYCAKVQERVTKGRFYLLEYYWGQGTQVTVSS | low polyreactivity
QVQLVESGGGLVQAGGSLRLSCAASGSIFGRYAMGWYRQAPGKERELVAAISSSGGRTYYADSVKGRFTISRDNAKNTVYLQMNSLKPEDTAVYYCNAGTPYRGDYWGQGTQVTVSS | high polyreactivity
QVQLVESAAGLVQAGASHRLSCAASARTFTVNAMGWYRQAPGKERELVAAISGRSGRTSYADSVKGRFTISRDNAKNTVYLQMNSLKQEVTAVYYCAADYYFYFTYPARFGYWGLGTQVTVSS | high polyreactivity
QVQLVESGGGLVQAGGSLRLSCAASGFTFSTNAMGWYRPAPGKERELVAAISPDGGTYYADSVKGRFTISRDNAKNTVYLQMNSLIPEDTAVYYCAAVWGRGVWDLYDYWGQGTQVTVSS | low polyreactivity
QVQLVESGGGLVQAGGSLRLSCAASGSIFTDNAMGWYRQAPGKERELVAAITSNGGSTYYADSVKGRFTISRDNAKNTVYLQMNSLKPEDTAVYYCAADSLYREDDYWGQGTQVTVSS | low polyreactivity
QVQLVESGGGLVQAGGSLRLSCAASGGIFQENAMGWYRQAPGKERELVATITRSTGSTYYADSVKGRFTISRDNAKNTVYLQMNSLKPEDTAVYYCAARRRSQYYRYAYKYDYWGQGTQVTVSS | high polyreactivity
QDPLVESGGGLVQAGGSLSLSCAASGRNIPVYAMGWYSQAPGKERELVATISYSGSSTYYADSVKGRFTNSRDNAKNTVYLEMYSLKPEDTAVYYWNADAFGPPGVQYYNWGQGTKVTVSS | low polyreactivity

Sequence | polyreactivity (PSR sort gate)
QVQLVESGGGLVQAGGSLRLSCAASGFTITKYAMGWYRQAPGKERELVAAISSSGYSTYYADSVKGRFTISRDNAKNTVYFQMNSLKPEDTAVYYCAARGYYSSGVDYCGQGTQVTVSS | high polyreactivity
QVQLVESGGGLVQAGGSLRLSCAASGINFRYYAMGWYRQATGKERELVADISSDGGTYYADSVKGRFKISRDNAQNTVYLQMNSLKPEDTAVYYCAADYQFYWHYYYWGQGTQVTVSS | high polyreactivity
QVQLVESAGGLVQAGGSLRLSCAASGLTFYLYVMGWSRQATGKERELVAAISRRGGTTYYADSVKGRFTISRDNAKNTVYLQMNSLKPEDTAVYYCNKADAVGRDYDYWGQGTQVTVSS | high polyreactivity
QVQLVESGGGLVQAGGSLRLSCAASGRTFPFYAMGWYRQAPGKERELVADITSSGGSTYYADSVKGRFTISRDNAKNTVYLQMNSLKPEDTAVYFCNSFRGAQGSDAYDWGQGTQVTVSS | low polyreactivity
QVQLVESGGGLVQAGGSLRLICAASGRTFNPYAMGWYRQAPGKERELVAAISSGGNTNYADSVKGRFTISRDNAKNSVYLQMNSLKPEDTAVYYCATGLRWYHQLTGGYWGQGTQVTVSS | high polyreactivity
QVQLVESGGGLVQAGGSLRLSCASSGFTFSDYAMAWYRQAPGKERELVADISTSGGSTYYADSVKGRFTISRDNAKNTVYLQMNSLKPEDTAVYYCAVRPGYYWGYWPRFGYWGQGTQVTVSS | low polyreactivity
QVQLVESGGGLVKAGGSLRLSCVASGLMFGYCAMGWYRQPPGTERELVAVISWSGTSRYYADSVKGRFTISRDNAKNTVYLQMNSLKPEDTAVYYCIADTYGYYLWTGAVSAGDDYWVQGTQVTVSS | low polyreactivity
QLQLVESVGGLVQAGGSLRLSCASSGLIFYVSAMGSYRQAPGKERELVAAITSSGASTYYADSVKGRFTISRDNAKNTVYLQMNSLKPEDTAVYYCAGRYAGGRRAYGYWGQGTQVSVSS | high polyreactivity
QVQLVESGGGLVQAGGSLRLSCAASGLIFAEYAMGWYRQAPGKERELVARITSAGSTDYADSVKGRFTISRDNAKNTVYLQMNSLKPEDTAVYYCAARYYSQDKNASTASDFDYWGQGTQVTVSS | low polyreactivity
QVQLVESGGGLVQAGGSLRLSCAASGYTFLRYAMGWYRQAPGKERELVAAISRRGGRTYYADSVKGRFTISRDNAKNTVYLQMNSLKPEDTAVYYCAAVNSTQTIGLMDYWGQGTQVTVSS | high polyreactivity
QVQLVESGGGLVQARGSLRLSCAPSGFTFEAYAMGWYRQAPGKERELVAAISSSDTTSYADSVKGRFTISRDNAKNTVYLQMNSLKREDTAVYYCAADDWYTGYDYWGQGTQVTVSS | high polyreactivity
QVQLVESGGGLVQAGGSLRLSCAASGRIFYSNAMGWYRQAPGKERELVAGINYRDGSTYYADSVKGRFTISRDNAKKTVYLQMNSLKPEDTAVYYCAKRRQSYPYKTSTWYSHYSWGQGTQVTVSS | high polyreactivity
QVQLVESGGGLVQAGGSLRLSCAASGRTFLVYTMGWYRQAPGKERELVAAISWSDGSTYYADSEKGRFTISRDNAKNTVYLQMNSLKPEDTAVYYCAARRTGYLYRYGYWGQGTQVTVSS | low polyreactivity
QVQLVESGGGLVQAGGSLRLSCAASGSIFGYYAMGWYRQAPGKERELVARISYSGGTTYYADSVKGRFTISRDNAKNTVYLQMNSLKPEATAVYYCNARIPYSWRYGYWGQGTQVTVSS | high polyreactivity
QVQLVESGGGLDQAGGSLRLSCAASGSTFNSYVMGCYRQAPGKEREFVAAISWSGVRTYYADSVKGRFTISRDNAKNTVFLQMNSLIPEDTAVYYCAVRSGRRNYYRPAFGYWGQGTQVTVSS | high polyreactivity
QVQLVESGGGLVQAGGSLRLSCAASGRIFYTNVMGWYRQAPGKERELVAAISTGGGRTYYADSVKGRFTISRDNAKNTVYLQMNSLKPEDTAVYYCAASGRYAIVWGDQYYGYYYWGQGTQVTVSS | high polyreactivity
QVQLVESGGGLVQAGGSLRLSCAASGRTFSYYAMGWYRQAHGKERELVAAITSSGGRTTYADSVKGRFTISRDNAKNTVYLQMNSLKPEDTAVYYCNVVRWTLKYGYWGQGTQVTVSS | high polyreactivity
QVQLVESGGGLVQAGGSLRLSCAASGGIFGLYTMGWYRQAPGKERELVAAISKTGGSTYYADSVKGRFTISRDNAKNTVYLQMNSLKPEDTAVYYCAKAGRYANLPYGYWGQGTQVTVSS | high polyreactivity
QVQLVESGGGLVQAGGSLRLSCADSGLTFYDYAMGWYRQAPGKERELVADIDFNGGSTSYADSVKGRFTISRDNAKNTVYLQMNSLKPEDTAVYYCNTRDRGDVVTGLDYWGQGTQVTVSS | low polyreactivity
QVQLVESGGGLVQAGGSLRLSCAASGRIFRWYVMGWYRQAPGKERELVASISSGGITYYADSVKGRFTISRDNAKNTVYLQMNSLKPEDTAVYYCNARRQPYRTSGSEMGYWGQGTQVTVSS | high polyreactivity
